Test system: Escherichia coli TOP10
Test: shrunken log2 fold change of peptide-encoding DNA abundance (4.5 h post-induction vs induction); higher = less antimicrobial activity (less host growth inhibition)
Conditions: time post-induction: 4.5 h; library: site-saturation at positions 5, 18, 19, 20
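Also: peptides expressed intracellularly from a pBAD plasmid library in pooled LB shake-flask culture, induced with 0.3% L-arabinose, DNA abundance read by NGS, three biological replicates, DESeq2 with apeglm shrinkage.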

| Sequence | shrunken log2 fold change |
| --- | --- |
| RRIRLRPPRLPRPRPRPFDAPRP | 0.509 |
| RRIRLRPPRLPRPRPRPFDIPRP | -0.0171 |
| RRIRLRPPRLPRPRPRPFDMPRP | -0.205 |
| RRIRLRPPRLPRPRPRPFIEPRP | -0.372 |
| RRIRLRPPRLPRPRPRPFKYPRP | -0.482 |
| RRIRLRPPRLPRPRPRPFLHPRP | -0.306 |
| RRIRLRPPRLPRPRPRPFMIPRP | -0.186 |
| RRIRLRPPRLPRPRPRPFNYPRP | -0.817 |
| RRIRLRPPRLPRPRPRPFPIPRP | -0.0478 |
| RRIRLRPPRLPRPRPRPFPKPRP | -0.103 |
| RRIRLRPPRLPRPRPRPFSGPRP | -0.374 |
| RRIRLRPPRLPRPRPRPFSMPRP | -0.0455 |
| RRIRLRPPRLPRPRPRPFTCPRP | -0.115 |
| RRIRLRPPRLPRPRPRPFTFPRP | 0.0545 |
| RRIRLRPPRLPRPRPRPFTKPRP | -0.00525 |
| RRIRLRPPRLPRPRPRPFWDPRP | 0.184 |
| RRIRLRPPRLPRPRPRPFWQPRP | -0.0702 |
| RRIRLRPPRLPRPRPRPFYDPRP | 0.00534 |
| RRIRLRPPRLPRPRPRPGDTPRP | -0.238 |
| RRIRLRPPRLPRPRPRPGEYPRP | -0.0271 |
| RRIRLRPPRLPRPRPRPGFNPRP | -0.0341 |
| RRIRLRPPRLPRPRPRPGGMPRP | -0.16 |
| RRIRLRPPRLPRPRPRPGLLPRP | 0.0272 |
| RRIRLRPPRLPRPRPRPGLPPRP | 0.576 |
| RRIRLRPPRLPRPRPRPGLQPRP | -0.166 |

| Sequence | shrunken log2 fold change |
| --- | --- |
| RRIRLRPPRLPRPRPRPGLTPRP | -0.00899 |
| RRIRLRPPRLPRPRPRPGPCPRP | 0.121 |
| RRIRLRPPRLPRPRPRPGPIPRP | 0.195 |
| RRIRLRPPRLPRPRPRPGQVPRP | 0.318 |
| RRIRLRPPRLPRPRPRPGREPRP | 0.231 |
| RRIRLRPPRLPRPRPRPGRPPRP | 0.526 |
| RRIRLRPPRLPRPRPRPGTEPRP | -0.0405 |
| RRIRLRPPRLPRPRPRPGTTPRP | -0.221 |
| RRIRLRPPRLPRPRPRPGVAPRP | 0.529 |
| RRIRLRPPRLPRPRPRPGYMPRP | -0.459 |
| RRIRLRPPRLPRPRPRPGYWPRP | -0.0133 |
| RRIRLRPPRLPRPRPRPHAIPRP | -0.346 |
| RRIRLRPPRLPRPRPRPHAMPRP | -0.0654 |
| RRIRLRPPRLPRPRPRPHCRPRP | -0.254 |
| RRIRLRPPRLPRPRPRPHEMPRP | -0.377 |
| RRIRLRPPRLPRPRPRPHFGPRP | 0.0847 |
| RRIRLRPPRLPRPRPRPHFIPRP | -0.249 |
| RRIRLRPPRLPRPRPRPHGLPRP | 0.123 |
| RRIRLRPPRLPRPRPRPHGPPRP | 0.101 |
| RRIRLRPPRLPRPRPRPHGQPRP | 0.0101 |
| RRIRLRPPRLPRPRPRPHIFPRP | -0.747 |
| RRIRLRPPRLPRPRPRPHIYPRP | -0.297 |
| RRIRLRPPRLPRPRPRPHKRPRP | 0.0273 |
| RRIRLRPPRLPRPRPRPHLGPRP | -0.105 |
| RRIRLRPPRLPRPRPRPHLTPRP | -0.241 |

| Sequence | shrunken log2 fold change |
| --- | --- |
| RRIRLRPPRLPRPRPRPHLVPRP | 0.0694 |
| RRIRLRPPRLPRPRPRPHMEPRP | -0.101 |
| RRIRLRPPRLPRPRPRPHMGPRP | -0.386 |
| RRIRLRPPRLPRPRPRPHMKPRP | -0.024 |
| RRIRLRPPRLPRPRPRPHNHPRP | -0.77 |
| RRIRLRPPRLPRPRPRPHPWPRP | -0.0939 |
| RRIRLRPPRLPRPRPRPHRFPRP | 0.0608 |
| RRIRLRPPRLPRPRPRPHRGPRP | -0.00203 |
| RRIRLRPPRLPRPRPRPHRKPRP | -0.295 |
| RRIRLRPPRLPRPRPRPHRTPRP | -0.0946 |
| RRIRLRPPRLPRPRPRPHSAPRP | -0.202 |
| RRIRLRPPRLPRPRPRPHSLPRP | 0.0368 |
| RRIRLRPPRLPRPRPRPHSNPRP | -0.443 |
| RRIRLRPPRLPRPRPRPHSVPRP | -0.0683 |
| RRIRLRPPRLPRPRPRPHTWPRP | -0.202 |
| RRIRLRPPRLPRPRPRPHVIPRP | 0.0211 |
| RRIRLRPPRLPRPRPRPHWWPRP | 0.148 |
| RRIRLRPPRLPRPRPRPHYNPRP | -0.779 |
| RRIRLRPPRLPRPRPRPICKPRP | -0.28 |
| RRIRLRPPRLPRPRPRPIEEPRP | 0.0311 |
| RRIRLRPPRLPRPRPRPIGIPRP | -0.179 |
| RRIRLRPPRLPRPRPRPIHRPRP | -0.163 |
| RRIRLRPPRLPRPRPRPIIFPRP | -0.288 |
| RRIRLRPPRLPRPRPRPIIVPRP | -0.0625 |
| RRIRLRPPRLPRPRPRPIMQPRP | -0.271 |
